The test addresses GST-endophilin I (recombinant) (UniProt O35179). As to the kind of experiment: sequential GST pull-down, 32P autoradiography. Particulars: reference: total dynamin I of the lysate; sites S774,S778.

For “dynamin I (from UniProt P21575) 32P-labelled phospho-dynamin I of same lysate”, the other: phospho/total bound dynamin I, % of AmphI-SH3 control is 91%.

Values taken from article PMC2082060.
